In PMC11381347:

Target: N-terminal SmBiT-tagged SETD1A FLOS domain fragment (Sm-FO3)
Assay: split-NanoLuciferase-complementation assay with non-tagged competitor
Details: Sm-FO3 + N200-Lg with non-tagged competitor construct; parent: est. 3.6; read off a plot

Q: For “non-tagged BOD1L Shg1 fragment N200 (competitor) (from UniProt Q8NFC6) W104A”, which response is on record?
A: 7.6 RLU, x10^5
